Legend:
[1] = tested on: SK-N-FI neuroblastoma cells; test: SK-N-FI neuroblastoma xenograft tumor growth in mice (04 IGFR-20); type: in vivo, Athymic nude mice; conditions: 1 mg 19D12
[2] = tested on: SJSA-1 osteosarcoma cells; test: SJSA-1 osteosarcoma xenograft model (05-IGFR-12), dosing from day 18 post inoculation; type: in vivo, female nude mouse (strain NU/NU)
Description: About 7 million SJSA-1 osteosarcoma cells were inoculated subcutaneously to the flank of each female nude mouse (strain NU/NU from Charles River, age ˜6 wks-old, average weight ˜20 gram). For the experiment set forth in Table 8, dosing was initiated on day 18 post inoculation, when the xenograft tumor reached an average size of about 100 mm^3. Anti-IGF1R antibody (19D12 Light chain F/Heavy chain A (as set forth above)) was given ip twice a week at the dose of either 0.02 mg, 0.1 and 0.5 mg per mouse, while cytotoxic Cytoxan (cyclophosphamide) was given ip twice per week at the dose of 100 mpk for a total of 3 injection during the course of the study. Xenograft tumor size was measured twice per week with a caliper and captured electronically by the LabCat program.

[3] = tested on: SJSA-1 osteosarcoma cells; test: SJSA-1 osteosarcoma xenograft model (05-IGFR-21), dosing from 15 days after inoculation; type: in vivo, female nude mouse (strain NU/NU)
Description: Xenograft tumor size was measured twice per week with a caliper and captured electronically by the LabCat program. […] For the experiments set forth in Table 9, dosing was initiated 15 days after inoculation. […] Xenograft tumor size was measured twice per week with a caliper and captured electronically by the LabCat program.

[4] = tested on: Hs700T malignant pancreatic cells; test: Hs700T pancreatic xenograft tumor growth in mice (04 IGFR-16, 19D12 and Gemzar combination);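 further: subcutaneous flank xenografts in athymic nude mice, treated once tumors averaged 100 mm^3, antibody given intraperitoneally twice weekly, tumor size measured by calipers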
Description: Athymic nude mice were inoculated with tumor cells in the right flank, subcutaneously, along with Matrigel (1:1 cells:gel). In these experiments, 5×10^6 cells/mouse in a 1:1 mix with regular matrigel were inoculated subcutaneously. Tumor size was measured with calipers and the data was entered into the labcat program. Mice were grouped with average size of 100 mm^3. Tumor size and body weight were measured twice weekly.
In these experiments, mice were dosed twice per week, intraperitoneally (i.p.) with antibody 19D12 and chemotherapeutic agents at the indicated frequency. Tumor size and mouse body weight was measured twice weekly after treatment.

B1: 19D12: anti-IGF1R antibody: light chain variable region amino acids 20-128 of SEQ ID NO: 8, heavy chain variable region amino acids 20-137 of SEQ ID NO: 10 (antibody, V domains shown)
VL: MSPSQLIGFLLLWVPASRGEIVLTQSPGTLSVSPGERATLSCRASQSIGSSLHWYQQKPGQAPRLLIKYASQSLSGIPDRFSGSGSGTDFTLTISRLEPEDFAVYYCHQSSRLPHTFGQGTKVEIKRT
VH: MEFGLSWVFLVAILKGVQCEVQLVQSGGGLVKPGGSLRLSCAASGFTFSSFAMHWVRQAPGKGLEWISVIDTRGATYYADSVKGRFTISRDNAKNSLYLQMNSLRAEDTAVYYCARLGNFYYGMDVWGQGTTVTVSS
modifications: variable regions only: LC 20-128, HC 20-137; constant regions lack entries
Tumor Average Size ([1]; Day 12): 126 mm^3
Tumor Average Size ([1]; Day 15): 118 mm^3
Tumor Average Size ([1]; Day 19): 117 mm^3
Tumor Average Size ([1]; Day 22): 122 mm^3
Mean Tumor size ([2]; 0.02 mg 19D12, Day 0): 98 mm3
Mean Tumor size ([2]; 0.02 mg 19D12, Day 3): 121 mm3
Mean Tumor size ([2]; 0.02 mg 19D12, Day 7): 197 mm3
Mean Tumor size ([2]; 0.02 mg 19D12, Day 10): 272 mm3
Mean Tumor size ([2]; 0.02 mg 19D12, Day 14): 423 mm3
Mean Tumor size ([2]; 0.02 mg 19D12, Day 17): 675 mm3
Mean Tumor size ([2]; 0.1 mg 19D12, Day 0): 96 mm3
Mean Tumor size ([2]; 0.1 mg 19D12, Day 3): 121 mm3
Mean Tumor size ([2]; 0.1 mg 19D12, Day 7): 144 mm3
Mean Tumor size ([2]; 0.1 mg 19D12, Day 10): 231 mm3
Mean Tumor size ([2]; 0.1 mg 19D12, Day 14): 378 mm3
Mean Tumor size ([2]; 0.1 mg 19D12, Day 17): 431 mm3
Mean Tumor size ([2]; 0.1 mg 19D12, Day 21): 1037 mm3
Mean Tumor size ([2]; 0.5 mg 19D12, Day 0): 96 mm3
Mean Tumor size ([2]; 0.5 mg 19D12, Day 3): 103 mm3
Mean Tumor size ([2]; 0.5 mg 19D12, Day 7): 122 mm3
Mean Tumor size ([2]; 0.5 mg 19D12, Day 10): 115 mm3
Mean Tumor size ([2]; 0.5 mg 19D12, Day 14): 282 mm3
Mean Tumor size ([2]; 0.5 mg 19D12, Day 17): 435 mm3
Mean Tumor size ([2]; 0.5 mg 19D12, Day 21): 890 mm3
growth inhibition of the osteosarcoma tumor (in words) ([2]; ip twice a week, 0.02, 0.1 or 0.5 mg per mouse, summary of Table 8): marked anti-IGF1R-dependent growth inhibition
Mean Tumor size ([3]; 0.04 mg 19D12, Day 0): 142 mm3
Mean Tumor size ([3]; 0.04 mg 19D12, Day 4): 153 mm3
Mean Tumor size ([3]; 0.04 mg 19D12, Day 7): 222 mm3
Mean Tumor size ([3]; 0.04 mg 19D12, Day 11): 306 mm3
Mean Tumor size ([3]; 0.04 mg 19D12, Day 14): 431 mm3
Mean Tumor size ([3]; 0.1 mg 19D12, Day 0): 145 mm3
Mean Tumor size ([3]; 0.1 mg 19D12, Day 4): 147 mm3
Mean Tumor size ([3]; 0.1 mg 19D12, Day 7): 151 mm3
Mean Tumor size ([3]; 0.1 mg 19D12, Day 11): 212 mm3
Mean Tumor size ([3]; 0.1 mg 19D12, Day 14): 251 mm3
regression of tumor volume (in words) ([3]; ip twice a week, 0.04 or 0.1 mg per mouse, with Cytoxan 50 or 100 mpk once a week, summary of Table 9): anti-IGF1R-dependent regression of tumor volume
Tumor Average Size ([4]; 0.1 mg 19D12, Day 0): 74 mm^3
Tumor Average Size ([4]; 0.1 mg 19D12, Day 4): 86 mm^3
Tumor Average Size ([4]; 0.1 mg 19D12, Day 7): 89 mm^3
Tumor Average Size ([4]; 0.1 mg 19D12, Day 11): 98 mm^3
Tumor Average Size ([4]; 0.1 mg 19D12, Day 14): 123 mm^3
Tumor Average Size ([4]; 0.1 mg 19D12, Day 18): 165 mm^3
Tumor Average Size ([4]; 0.1 mg 19D12, Day 21): 187 mm^3
Tumor Average Size ([4]; 0.1 mg 19D12, Day 26): 272 mm^3
Tumor Average Size ([4]; 0.1 mg 19D12, Day 29): 335 mm^3
Tumor Average Size ([4]; 0.1 mg 19D12, Day 33): 371 mm^3
Tumor Average Size ([4]; 0.1 mg 19D12, Day 36): 415 mm^3
Tumor Average Size ([4]; 0.5 mg 19D12, Day 0): 75 mm^3
Tumor Average Size ([4]; 0.5 mg 19D12, Day 4): 70 mm^3
Tumor Average Size ([4]; 0.5 mg 19D12, Day 7): 69 mm^3
Tumor Average Size ([4]; 0.5 mg 19D12, Day 11): 71 mm^3
Tumor Average Size ([4]; 0.5 mg 19D12, Day 14): 93 mm^3
Tumor Average Size ([4]; 0.5 mg 19D12, Day 18): 115 mm^3
Tumor Average Size ([4]; 0.5 mg 19D12, Day 21): 137 mm^3
Tumor Average Size ([4]; 0.5 mg 19D12, Day 26): 239 mm^3
Tumor Average Size ([4]; 0.5 mg 19D12, Day 29): 249 mm^3
Tumor Average Size ([4]; 0.5 mg 19D12, Day 33): 282 mm^3
Tumor Average Size ([4]; 0.5 mg 19D12, Day 36): 334 mm^3
Tumor Average Size ([4]; 1 mg 19D12, Day 0): 77 mm^3
Tumor Average Size ([4]; 1 mg 19D12, Day 4): 80 mm^3
Tumor Average Size ([4]; 1 mg 19D12, Day 7): 85 mm^3
Tumor Average Size ([4]; 1 mg 19D12, Day 11): 81 mm^3
Tumor Average Size ([4]; 1 mg 19D12, Day 14): 99 mm^3
Tumor Average Size ([4]; 1 mg 19D12, Day 18): 128 mm^3
Tumor Average Size ([4]; 1 mg 19D12, Day 21): 152 mm^3
Tumor Average Size ([4]; 1 mg 19D12, Day 26): 231 mm^3
Tumor Average Size ([4]; 1 mg 19D12, Day 29): 280 mm^3
Tumor Average Size ([4]; 1 mg 19D12, Day 33): 312 mm^3
Tumor Average Size ([4]; 1 mg 19D12, Day 36): 305 mm^3

Reference: US20150093398A1, “Methods and Compositions for Treating or Preventing Cancer” (MERCK SHARP & DOHME CORP., priority 2005, published 2015)
